In the supplement of paper PMC9112550, “Optimization of the antimicrobial peptide Bac7 by deep mutational scanning” (BMC Biology, 2022):

system: Escherichia coli TOP10; experiment: shrunken log2 fold change of peptide-encoding DNA abundance (4.5 h post-induction vs induction); higher = less antimicrobial activity (less host growth inhibition); conditions: time post-induction: 4.5 h; library: site-saturation at positions 5, 18, 19, 20
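Note: peptides expressed intracellularly from a pBAD plasmid library in pooled LB shake-flask culture, induced with 0.3% L-arabinose, DNA abundance read by NGS, three biological replicates, DESeq2 with apeglm shrinkage.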

Going from RRIRMRPPRLPRPRPRPSKAPRP to RRIRHRPPRLPRPRPRPRCYPRP, the “shrunken log2 fold change” value falls from 0.455 to -0.154.

RRIRGRPPRLPRPRPRPRQTPRP and RRIRQRPPRLPRPRPRPDEPPRP are within 0.2 log units of each other in “shrunken log2 fold change” value: -0.144 for the first, -0.0062 for the second.

Compared with RRIRYRPPRLPRPRPRPQYHPRP, RRIRLRPPRLPRPRPRPWRNPRP is higher in “shrunken log2 fold change” value: -0.873 for the first, 0.00408 for the second.

Going from RRIRQRPPRLPRPRPRPIMSPRP to RRIRVRPPRLPRPRPRPSSGPRP, the “shrunken log2 fold change” value falls from 0.0933 to -0.39.

Compared with RRIRIRPPRLPRPRPRPWRVPRP, RRIRLRPPRLPRPRPRPEPWPRP is higher in “shrunken log2 fold change” value: -0.0531 for the first, 0.222 for the second.

Going from RRIRMRPPRLPRPRPRPRSGPRP to RRIRYRPPRLPRPRPRPSHCPRP, the “shrunken log2 fold change” value falls from 0.815 to -0.549.

RRIRIRPPRLPRPRPRPWDHPRP and RRIRLRPPRLPRPRPRPQEVPRP are within 0.2 log units of each other in “shrunken log2 fold change” value: 0.0393 for the first, 0.0641 for the second.

RRIRSRPPRLPRPRPRPEGNPRP and RRIRRRPPRLPRPRPRPSMWPRP are within 0.2 log units of each other in “shrunken log2 fold change” value: -0.0126 for the first, 0.168 for the second.

Going from RRIRNRPPRLPRPRPRPASGPRP to RRIRHRPPRLPRPRPRPTFNPRP, the “shrunken log2 fold change” value falls from 0.247 to -0.612.

RRIRQRPPRLPRPRPRPNPAPRP and RRIRSRPPRLPRPRPRPTHKPRP are within 0.2 log units of each other in “shrunken log2 fold change” value: 0.17 for the first, 0.202 for the second.

RRIRNRPPRLPRPRPRPGDSPRP and RRIRQRPPRLPRPRPRPEINPRP are within 0.2 log units of each other in “shrunken log2 fold change” value: -0.0564 for the first, -0.15 for the second.

RRIRCRPPRLPRPRPRPIAKPRP and RRIRDRPPRLPRPRPRPRQNPRP are within 0.2 log units of each other in “shrunken log2 fold change” value: 0.0637 for the first, 0.00972 for the second.

Going from RRIRTRPPRLPRPRPRPPHSPRP to RRIRNRPPRLPRPRPRPRTVPRP, the “shrunken log2 fold change” value falls from -0.141 to -0.403.

Compared with RRIRCRPPRLPRPRPRPMWLPRP, RRIRLRPPRLPRPRPRPHYIPRP is lower in “shrunken log2 fold change” value: -0.235 for the first, -0.615 for the second.

Compared with RRIRSRPPRLPRPRPRPIFMPRP, RRIRMRPPRLPRPRPRPTANPRP is higher in “shrunken log2 fold change” value: -0.117 for the first, 0.921 for the second.

RRIRDRPPRLPRPRPRPMKGPRP and RRIRTRPPRLPRPRPRPQICPRP are within 0.2 log units of each other in “shrunken log2 fold change” value: 0.0395 for the first, 0.13 for the second.

RRIRDRPPRLPRPRPRPNGGPRP and RRIRMRPPRLPRPRPRPAIVPRP are within 0.2 log units of each other in “shrunken log2 fold change” value: -0.0647 for the first, -0.161 for the second.

RRIRGRPPRLPRPRPRPKNGPRP and RRIRERPPRLPRPRPRPFCGPRP are within 0.2 log units of each other in “shrunken log2 fold change” value: 0.0583 for the first, -0.058 for the second.

Compared with RRIRDRPPRLPRPRPRPQNLPRP, RRIRPRPPRLPRPRPRPALHPRP is higher in “shrunken log2 fold change” value: 0.0232 for the first, 0.681 for the second.

RRIRHRPPRLPRPRPRPEAWPRP and RRIRERPPRLPRPRPRPPHWPRP are within 0.2 log units of each other in “shrunken log2 fold change” value: 0.0548 for the first, 0.223 for the second.

Compared with RRIRIRPPRLPRPRPRPMWHPRP, RRIRERPPRLPRPRPRPQIHPRP is lower in “shrunken log2 fold change” value: -0.176 for the first, -0.835 for the second.

RRIRGRPPRLPRPRPRPWNQPRP and RRIRTRPPRLPRPRPRPMSQPRP are within 0.2 log units of each other in “shrunken log2 fold change” value: -0.139 for the first, -0.000911 for the second.

First: RRIRDRPPRLPRPRPRPISNPRP
Second: RRIRSRPPRLPRPRPRPHPEPRP
The “shrunken log2 fold change” value of the first is lower: -0.175 for the first, 0.316 for the second.

First: RRIRHRPPRLPRPRPRPSRFPRP
Second: RRIRLRPPRLPRPRPRPPLFPRP
The “shrunken log2 fold change” value of the first is lower: 0.0223 for the first, 0.412 for the second.

RRIRTRPPRLPRPRPRPMHGPRP and RRIRSRPPRLPRPRPRPVGYPRP are within 0.2 log units of each other in “shrunken log2 fold change” value: -0.0017 for the first, 0.093 for the second.

RRIRPRPPRLPRPRPRPWTCPRP and RRIRARPPRLPRPRPRPIIQPRP are within 0.2 log units of each other in “shrunken log2 fold change” value: -0.0575 for the first, -0.206 for the second.

RRIRYRPPRLPRPRPRPNPEPRP and RRIRCRPPRLPRPRPRPASVPRP are within 0.2 log units of each other in “shrunken log2 fold change” value: -0.0105 for the first, 0.176 for the second.

Compared with RRIRWRPPRLPRPRPRPRAAPRP, RRIRGRPPRLPRPRPRPSPSPRP is lower in “shrunken log2 fold change” value: 1.04 for the first, 0.649 for the second.

Compared with RRIRERPPRLPRPRPRPSDNPRP, RRIRMRPPRLPRPRPRPEIEPRP is higher in “shrunken log2 fold change” value: -1.25 for the first, 0.0729 for the second.

RRIRLRPPRLPRPRPRPCWLPRP and RRIRLRPPRLPRPRPRPRFDPRP are within 0.2 log units of each other in “shrunken log2 fold change” value: 0.0345 for the first, -0.053 for the second.

First: RRIRVRPPRLPRPRPRPEDIPRP
Second: RRIRDRPPRLPRPRPRPNPLPRP
The “shrunken log2 fold change” value of the first is lower: -0.311 for the first, 1.05 for the second.

First: RRIRNRPPRLPRPRPRPDIAPRP
Second: RRIRWRPPRLPRPRPRPEGNPRP
The “shrunken log2 fold change” value of the first is lower: -0.0447 for the first, 0.29 for the second.

RRIRSRPPRLPRPRPRPWAEPRP and RRIRWRPPRLPRPRPRPNTAPRP are within 0.2 log units of each other in “shrunken log2 fold change” value: 0.0168 for the first, 0.055 for the second.

First: RRIRWRPPRLPRPRPRPEMPPRP
Second: RRIRTRPPRLPRPRPRPIYAPRP
The “shrunken log2 fold change” value of the first is higher: 0.364 for the first, 0.0866 for the second.

RRIRQRPPRLPRPRPRPVHWPRP and RRIRERPPRLPRPRPRPERKPRP are within 0.2 log units of each other in “shrunken log2 fold change” value: 0.188 for the first, 0.0538 for the second.

Going from RRIRGRPPRLPRPRPRPRQVPRP to RRIRWRPPRLPRPRPRPRRNPRP, the “shrunken log2 fold change” value falls from 0.585 to 0.0585.

RRIRARPPRLPRPRPRPTICPRP and RRIRHRPPRLPRPRPRPLNFPRP are within 0.2 log units of each other in “shrunken log2 fold change” value: 0.144 for the first, -0.0479 for the second.

First: RRIRHRPPRLPRPRPRPTNYPRP
Second: RRIRARPPRLPRPRPRPNVMPRP
The “shrunken log2 fold change” value of the first is lower: -0.2 for the first, 0.153 for the second.

Going from RRIRERPPRLPRPRPRPHATPRP to RRIRSRPPRLPRPRPRPDTNPRP, the “shrunken log2 fold change” value falls from 0.238 to -0.111.

RRIRWRPPRLPRPRPRPYRHPRP and RRIRFRPPRLPRPRPRPKLQPRP are within 0.2 log units of each other in “shrunken log2 fold change” value: -0.0902 for the first, -0.0358 for the second.

Compared with RRIRPRPPRLPRPRPRPYWQPRP, RRIRMRPPRLPRPRPRPMGAPRP is higher in “shrunken log2 fold change” value: 0.0184 for the first, 1.18 for the second.

RRIRFRPPRLPRPRPRPSMQPRP and RRIRVRPPRLPRPRPRPLEWPRP are within 0.2 log units of each other in “shrunken log2 fold change” value: -0.209 for the first, -0.0248 for the second.

RRIRNRPPRLPRPRPRPCQIPRP and RRIRYRPPRLPRPRPRPETAPRP are within 0.2 log units of each other in “shrunken log2 fold change” value: -0.0177 for the first, 0.00332 for the second.

RRIRLRPPRLPRPRPRPKQNPRP and RRIRSRPPRLPRPRPRPKTRPRP are within 0.2 log units of each other in “shrunken log2 fold change” value: 0.2 for the first, 0.156 for the second.

RRIRERPPRLPRPRPRPHKWPRP and RRIRHRPPRLPRPRPRPCQLPRP are within 0.2 log units of each other in “shrunken log2 fold change” value: -0.0895 for the first, -0.0748 for the second.

First: RRIRIRPPRLPRPRPRPTYIPRP
Second: RRIRCRPPRLPRPRPRPLKAPRP
The “shrunken log2 fold change” value of the first is lower: -1.29 for the first, -0.249 for the second.

RRIRKRPPRLPRPRPRPNLPPRP and RRIRRRPPRLPRPRPRPSCVPRP are within 0.2 log units of each other in “shrunken log2 fold change” value: 0.118 for the first, 0.259 for the second.

Compared with RRIRARPPRLPRPRPRPVDFPRP, RRIRPRPPRLPRPRPRPKNSPRP is lower in “shrunken log2 fold change” value: 0.39 for the first, -0.144 for the second.

RRIRDRPPRLPRPRPRPHNQPRP and RRIRTRPPRLPRPRPRPFFMPRP are within 0.2 log units of each other in “shrunken log2 fold change” value: -0.398 for the first, -0.231 for the second.

Compared with RRIRQRPPRLPRPRPRPCCQPRP, RRIRERPPRLPRPRPRPNSKPRP is lower in “shrunken log2 fold change” value: -0.00534 for the first, -0.863 for the second.

First: RRIRYRPPRLPRPRPRPMFNPRP
Second: RRIRWRPPRLPRPRPRPAMYPRP
The “shrunken log2 fold change” value of the first is lower: -1.14 for the first, -0.112 for the second.

First: RRIRCRPPRLPRPRPRPSETPRP
Second: RRIRTRPPRLPRPRPRPELLPRP
The “shrunken log2 fold change” value of the first is lower: 0.108 for the first, 0.39 for the second.

Compared with RRIRCRPPRLPRPRPRPCFFPRP, RRIRMRPPRLPRPRPRPIELPRP is lower in “shrunken log2 fold change” value: 0.392 for the first, -0.04 for the second.

Going from RRIRMRPPRLPRPRPRPWWEPRP to RRIRLRPPRLPRPRPRPTLLPRP, the “shrunken log2 fold change” value rises from -0.425 to 0.0589.

In the case of RRIRERPPRLPRPRPRPTNMPRP, the “shrunken log2 fold change” value is reported as -0.568.
